Measured values reported in patent publication US20230122991A1, “GROWTH FACTOR FORMULATION FOR CONDITION ASSOCIATED WITH OTIC EVENT” (OTONOMY, INC., priority 2020, published 2023).

Legend:
Assay type in all cases: in vivo, rat
[1] = system: noise exposed adult rats; experiment: Noise-induced hearing loss/synaptopathy, ABR wave I amplitude (Example A1); conditions: sustained release formulation, 0.005% BDNF in Poloxamer 407, single unilateral intratympanic administration 24 hrs after noise; compared to vehicle treatment; FIG. 3A
Description: Male rats (Charles River) approximately 10-11 months of age served as subjects (N=6 per group). Prior to any procedures, animals were anesthetized using a combination of xylazine (10 mg/kg) and ketamine (90 mg/kg) for up to one hour via the intraperitoneal route. If needed, an intraoperative booster was administered intraperitoneally representing one-tenth of the original dose.
Noise exposure—Anesthetized animals (4 at a time) were placed in an enclosure and exposed to noise. The characteristics of the acoustic trauma were as follows: a single period of 1 h, sound pressure level of 105 dB SPL with a narrow band pass of 8-16 kHz. […]
Auditory Brainstem Response (ABR) assessment (wave 1)—During the procedure, additional anesthetic (xylazine and ketamine) was administered if needed to maintain the depth of anesthesia sufficient to insure immobilization and relaxation. ABRs were recorded in an electrically and acoustically shielded chamber, one ear at a time. […] Acoustic calibration was performed with TDT software (SigCal) and thresholds were expressed as dB SPL in conditions identical to that of threshold recordings in animals. […] Wave 1 was quantified by averaging the wave 1 amplitude from intensities ranging between 60-80 dB SPL.
Animals were exposed to noise on Day 0. […] ABR threshold and ABR wave I amplitude were measured weekly in live animals for up to 4 weeks. […]

[2] = system: rats after acoustic trauma; experiment: Noise-induced cochlear synaptopathy, IHC synaptic puncta counts at various BDNF concentrations (Example K); conditions: at all three BDNF concentrations (0.005%, 0.05%, 0.5% BDNF in P407); Day 28; FIG. 19
Description: (§1) Animals: Male Sprague-Dawley rats (5-6 months of age) were used for efficacy studies and females (2-3 months) were used for pharmacokinetic studies.
Formulations: Human recombinant BDNF was suspended in the thermoreversible polymer Poloxamer 407 (16%) to reach a range of BDNF concentrations (0.005%, 0.05%, and 0.5% by weight).
(§2) Intratympanic (IT) injection: Formulations were administered under anesthesia as a single IT injection (20 μl) through the tympanic membrane into the middle ear, targeting the round window membrane (RWM).
Noise-induced cochlear synaptopathy: Rats received a single acoustic trauma (105 dB SPL, 8-16 kHz, 1 h) under anesthesia. 24 hours later (Day 1) animals received a single bilateral IT injection of the treatment regimens. Auditory function (ABR and ABR wave 1 amplitude) was monitored at day 1 and then every 7 days for 28 days, as illustrated in FIG. 16. At termination (Day 28), cochleae were collected and assessed for evidence of cochlear synaptopathy (IHC synaptic puncta counts).
Immunohistochemistry: Dissected cochleae were immunostained with antibodies against presynaptic (CtBP2) and postsynaptic (GluR2) proteins and MyosinVIIa to label hair cells. Cochleae were then frequency mapped and high-magnification images were obtained with a Zeiss LSM-880 confocal microscope and imaged at an interval of 0.35 μm.

[3] = system: adult male rats bilaterally exposed to noise; experiment: Noise-induced cochlear synaptopathy, ABR and wave I amplitude after delayed intratympanic injection (Example L); conditions: for ABR threshold shift: ABR at day 28, FIG. 21; for wave I amplitudes: day 28, FIG. 22
Description: as §1
Formulations: Human recombinant BDNF was suspended in the thermoreversible polymer Poloxamer 407 (16%) to reach a BDNF concentration of 0.005%.
as §2
Noise-induced cochlear synaptopathy: Rats received a single acoustic trauma (105 dB SPL, 8-16 kHz, 1 h) under anesthesia. […] Auditory function (ABR and ABR wave 1 amplitude) was monitored at day 28. At termination (Day 28), cochleae were collected and assessed for evidence of cochlear synaptopathy (IHC synaptic puncta counts).
Intratympanic BDNF Injected 1, 3, or 7 Days After Acoustic Trauma improves Auditory Brainstem Response (ABR) thresholds and wave I amplitudes in adult rats. The Auditory Brainstem Response (ABR) is an objective test that measures hearing sensitivity and can identify abnormalities in the peripheral auditory system and the auditory pathway up through the brainstem. Adult male rats were bilaterally exposed to noise followed by an intratympanic injection of 0.005% BDNF in P407 1 day, 3 days, 7 days, or 14 days after noise exposure. ABR recordings were obtained at day 28.
The ABR Wave I amplitude is an indicator of the strength of the distal cochlear nerve signal, i.e., the response of the spiral ganglion neurons/synapses.

[4] = 0.005% BDNF in P407 injected 1, 3, or 7 days after noise exposure
[5] = 0.005% BDNF in P407 injected 14 days after noise exposure

B1: brain-derived neurotrophic factor (protein, UniProt P23560 129-247, looked up)
Neurotrophic factor BDNF: HSDPARRGELSVCDSISEWVTAADKKTAVDMSGGTVTVLEKVPVSKGQLKQYFYETKCNPMGYTKEGCRGIDKRHWNSQCRTTQSYVRALTMDSKKRIGWRFIRIDTSCVCTLTIKRGR
modifications: Neurotrophic factor BDNF in 16% poloxamer 407 gel
notes: Human recombinant BDNF
hearing function (wave I amplitude) [1]: improved | synaptic puncta (co-expression of CtBp2 and GluR2) per inner hair cell [2]: increased | ABR threshold shift [3, 4]: more rapid recovery of initial threshold shifts and overall reduced levels of hearing loss | wave I amplitudes [3, 4]: significant improvements | ABR threshold shift [3, 5]: did not showed a more rapid recovery of initial threshold shifts and overall reduced levels of hearing loss | wave I amplitudes [3, 5]: did not show significant improvements
